Where no end group is shown, it is not given here.
T1: PTEN peptide 33-47 amide (human and mouse (same sequence), UniProt P60484)
T1 chain: IAMGFPAERLEGVYR-NH2

B1: PTENz14 (structured_DNA)
DNA: CGGAATTCCGAGCGTGGGCGTGAGCCCTAAACACAAGTCCGCAGGGGTGTGGTAATATTCGCAGTTGTGTGTACGCCCACGCTCGAG
B2: PTENz7 (structured_DNA)
DNA: CGGAATTCCGAGCGTGGGCGTGGTCATACCGCGCCTATCGAACTCGCCACTCGCGTGCAGCTCTGTGTAGGTACGCCCACGCTCGAG

Experiments:
[1] = biological target: T2, GST-PTEN (amino-terminal phosphatase domain) (Homo sapiens, UniProt P60484 1-200); test: filter binding, Scatchard; data not shown; Filter binding: 50 mM Tris (pH not given), 1 h, 40 µl, protein 0.5 mg/ml (Fig. 2E: GST-PTEN 25 µM), PBS washes; co-precipitation 1 h at room temperature, 1 µM aptamer; pull-down from homogenate with 250 nM aptamer, salmon sperm DNA, RIPA (1:2)/PBS washes; blots in PBS-BSA 2%; conditions: protein: recombinant; tags: GST (N-terminal, pGEX2T); label: 5'-biotin or 32P (assay dependent); hairpin; 13 bp stem from the constant regions
[2] = biological target: T1, PTEN peptide 33-47 amide; test: co-precipitation on antibody-Sepharose, real-time PCR; peptide bound to anti-PTEN antiserum; 1.8e11 molecules bound; Filter binding: 50 mM Tris (pH not given), 1 h, 40 µl, protein 0.5 mg/ml (Fig. 2E: GST-PTEN 25 µM), PBS washes; co-precipitation 1 h at room temperature, 1 µM aptamer; pull-down from homogenate with 250 nM aptamer, salmon sperm DNA, RIPA (1:2)/PBS washes; blots in PBS-BSA 2%; conditions: tags: C-terminal amide; label: 5'-biotin or 32P (assay dependent); hairpin; 13 bp stem from the constant regions
[3] = biological target: T1, PTEN peptide 33-47 amide; test: filter binding; Filter binding: 50 mM Tris (pH not given), 1 h, 40 µl, protein 0.5 mg/ml (Fig. 2E: GST-PTEN 25 µM), PBS washes; co-precipitation 1 h at room temperature, 1 µM aptamer; pull-down from homogenate with 250 nM aptamer, salmon sperm DNA, RIPA (1:2)/PBS washes; blots in PBS-BSA 2%; conditions: tags: C-terminal amide; label: 5'-biotin or 32P (assay dependent); hairpin; 13 bp stem from the constant regions
[4] = biological target: T2, GST-PTEN (amino-terminal phosphatase …); test: filter binding, Scatchard; called affinity constant; Filter binding: 50 mM Tris (pH not given), 1 h, 40 µl, protein 0.5 mg/ml (Fig. 2E: GST-PTEN 25 µM), PBS washes; co-precipitation 1 h at room temperature, 1 µM aptamer; pull-down from homogenate with 250 nM aptamer, salmon sperm DNA, RIPA (1:2)/PBS washes; blots in PBS-BSA 2%; conditions: protein: recombinant; tags: GST (N-terminal, pGEX2T); label: 5'-biotin or 32P (assay dependent); hairpin; 13 bp stem from the constant regions

T2 sequence (P60484 1-200): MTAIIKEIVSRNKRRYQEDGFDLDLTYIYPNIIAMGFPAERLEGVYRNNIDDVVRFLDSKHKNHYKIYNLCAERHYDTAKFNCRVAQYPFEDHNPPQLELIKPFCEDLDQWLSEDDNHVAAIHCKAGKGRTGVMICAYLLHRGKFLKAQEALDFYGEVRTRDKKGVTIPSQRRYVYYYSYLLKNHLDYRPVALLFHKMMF

Binder	Kd [1] [nM]	binding signal [2] [fold over background]	binding result [3]	Kd [4] [nM]
B1	54	~20	–	–
B2	–	–	binds	75
